The values below come from paper doi:10.64898/2025.12.16.694593 (bioRxiv, 2025).

In series [1] the target is T1, Mtb Ku (from Ku-HIS, TEV-cleaved) (Mycobacterium tuberculosis, UniProt A5U0X7 1-273).
T1 sequence: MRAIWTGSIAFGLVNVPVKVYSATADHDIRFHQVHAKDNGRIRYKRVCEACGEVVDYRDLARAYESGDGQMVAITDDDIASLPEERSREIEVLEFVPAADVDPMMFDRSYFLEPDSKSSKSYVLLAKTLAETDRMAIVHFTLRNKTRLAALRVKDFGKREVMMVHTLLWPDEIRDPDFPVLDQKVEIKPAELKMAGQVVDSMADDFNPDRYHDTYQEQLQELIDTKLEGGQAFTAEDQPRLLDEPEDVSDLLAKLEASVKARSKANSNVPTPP
The series can be described thus: EMSA. Background: In EMSA bound probe runs differently from free probe, usually more slowly.

Series [2] has as its target T2, Mtb Ku released from RFP-Ku by TEV (Mycobacterium tuberculosis, UniProt A5U0X7 1-273).
T2 sequence: T1 sequence
Nature of the series: EMSA.

B1: 32/20dT DNA (called 30 bp/20 dT in legends) (dsDNA)
DNA 1: GCCCTGCTGCCGACCAACGATGGTTACATTCC
DNA 2: GGAATGTAACCATCGTTGGTCGGCAGCAGGGCTTTTTTTTTTTTTTTTTTTT
For B1, the binding result in series [1] and in series [2] was “binds” each time.

B2: 50 bp blunt end (dsDNA)
DNA 1: GCTAAGTCATCGTCTGTCGATCGATCTCTCGAGTAGTACAGGTCTAGAGG
DNA 2: CCTCTAGACCTGTACTACTCGAGAGATCGATCGACAGACGATGACTTAGC
With B2, the binding result in series [1] is “binds”.
